Results published in the nanobody polyreactivity screen of Harvey et al. (2022).

Assay: yeast display, Sf9 membrane polyspecificity reagent, FACS + sequencing; frameworks hold sequencing errors
Summary of the method: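 A synthetic nanobody library was expressed on Saccharomyces cerevisiae BJ5465 by galactose induction for 36–48 hours. The library was stained for 1 hour at 4 °C with 10% biotinylated, detergent-solubilized Sf9 membrane reagent and enriched with streptavidin microbeads before FACS. Low and high (top ~1%) gates were set on anti-HA fluorescence for expression and streptavidin fluorescence for reagent binding, and each polyreactivity label reflects the gate of origin.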

| Sequence | polyreactivity (PSR sort gate) |
| --- | --- |
| QVQLVESGGGLVQAGGSLRLSCAASGRNLLGNAMGGYRQAPGKEREFVAAISYRGGSTYYADSVKGRFTISRDNEKNTVYLQMNSLKPVDNAVPYCAASSLKYSRFDYGGQGTQVTVSS | low polyreactivity |
| QVQLVESGGGLVQAGGSLRLSCAASGRNLYYNAMGWYRHAPGKERELVAAITFRGGSTSYADSVKGRFTISRDNAKNTVYLQMNSLKPEDTAVYYCAAGYTWRQSWYPFDYWGQGTQVTVSS | high polyreactivity |
| QVQLVESGGGLVQAGGSLRLSCAASGRPFDSNAMGWYRQGPGKERELVAAISYGCGTTHYADSVKGRFTISRDNAKNTVYLQMNSLKPEDTAVYYCAADPELQWESVTIGEYDYWGQGTQVTVSS | low polyreactivity |
| QVQLVESGGGLVQAGGSLRLSCAASGRPFVSYALGWYRQAPGKERELVAVITGGTGNTYYADSVKGRFTISRDNAKNTVYLQMNSLIPEDTAVYYCNARGGYYKFRYPLYYWGQVTQVTVSS | high polyreactivity |
| QVQLVESGGGLVQAGGSLRLSCAASGRSFGTNAMVSYIQAPGKEREFVAAIRKSGATTYYADSVKGRFTISRDNAKNTVYLQMNSLKPDDTAVYYCAADFFYYGKWYSGYYWGQGTQVTVSS | high polyreactivity |
| QVQLVESGGGLVQAGGSLRLSCAASGRSFTSNTMGWYRPAPGKERELVAAITSSGGSMYYADSVKGRFTISRDNANNTVYLQMNSLKPEDTAVYYCAADTIGYHYWYDYWGQGTQVTVSS | low polyreactivity |
| QVQLVESGGGLVQAGGSLRLSCAASGRSFVLYTMGWSRQAPGKEREWVAAISGSGGRTYYADSVKGRFTISRDHAKNTVNLQMNSLKPEDTAVYYCAAYGQGLPLYGYWGPGTQVTVSS | high polyreactivity |
| QVQLVESGGGLVQAGGSLRLSCAASGRSFWKYAMGWCRQAPGKERELVAAITSDGSTYYADSVKGRFTISRDNAKNTVYFQMNSLKPEDTADYYCAAQQWFEYDYWGQGTQVTVSS | low polyreactivity |
| QVQLVESGGGLVQAGGSLRLSCAASGRTCDRNTMGWYRQAPGKERELVAAISGSSARTYYADSVKGRFTISRDNAKNTVYLQMNSLKPEDTAVYYCNAEYGARAQHYEGDSWGQGTQVTVSS | high polyreactivity |
| QVQLVESGGGLVQAGGSLRLSCAASGRTCWSYAMGWYRQAPGKEREVVATITGRGGSTYYADSVKGRFTISRDNAKNTVYLQRNSLKPEDTAVYYCAVRSKYRRTFGSWGQGTQVTVSS | high polyreactivity |
| QVQLVESGGGLVQAGGSLRLSCAASGRTFAANTMGWYRQAPGKERELVAAISSSGGSTSYADSVKGRFTISRDNAKNTVYLQMNSLKPEDTAVYYCNTLLRRDFNYWGQGTQVTVSS | high polyreactivity |
| QVQLVESGGGLVQAGGSLRLSCAASGRTFAAYAMGWYRPAPGKESELVAAISSSSGNTYYADSVKGRFTISRDNAKNTVYLQMNSLKPEDTAVYYCNAQRRFNANYWYDYWGQGTQVTVSS | high polyreactivity |
| QVQLVESGGGLVQAGGSLRLSCAASGRTFAAYAMGWYRQAPGKEREFVADITYSGGSTTYADSVKGRFTISRDNAKNTVYLQMNSLKPEDTAVYYCNKLAYTRGWRGFVWYDYWGQGTQVTVSS | low polyreactivity |
| QVQLVESGGGLVQAGGSLRLSCAASGRTFAAYAMGWYRQAPGKERELGAAISIGGSTNYADSVKGRFTISRDNAKNTVYLQMNSLKPEDSAVYYCAAPWYRGGTTESYYWGQGTQVTVSS | high polyreactivity |
| QVQLVESGGGLVQAGGSLRLSCAASGRTFAAYAMGWYRQAPGKERELVAGITSSSVRTYYADSVKGRFTISRDNAKNTVYLQMNSLKPEDTAVYYCNARADGSSSRWRPYSKFYYWGQGTQVTVSS | low polyreactivity |
| QVQLVESGGGLVQAGGSLRLSCAASGRTFADNAMGWYRQAPGKERELVASISSGTSTNYADSVKGRFTISRDNAKNTVYLQMNSLKPEDTAVYYCAADFSVYTEEDDSWGHGTQVTVSS | low polyreactivity |
| QVQLVESGGGLVQAGGSLRLSCAASGRTFAGNAMGWYRQAPGKERELVAAISQGGGSTYYADSVKGRFTISRDNAKNTVYLQMNSLKPEDTAVYYCAAEIPRRWASFATLWYDYWGQGTQVTVSS | low polyreactivity |
| QVQLVESGGGLVQAGGSLRLSCAASGRTFAGNAMGWYRQAPGKEREMVAAISVSGSTTYYADSVKGRFTISRDNAKNTVYLQMNSLKPEDTAVYYCAARGLTYRSDMYYWGQGTQVTVSS | low polyreactivity |
| QVQLVESGGGLVQAGGSLRLSCAASGRTFAGYAMGWYRQAPGKERELVAAITNGGSTKYADSVKGRFTISRDNAKNTVYLQMNSLKPEDTAVYYCNARKRFYSGNTLMYYWGQGTQVTLSS | high polyreactivity |
| QVQLVESGGGLVQAGGSLRLSCAASGRTFAINAMGWHRQAPGKERELVADITTDGSTYYADSVKGRFTISRDNAKNTVYLQMNSLKPEDTAVYYCATDSLDYFIRFKQFGYWGQGTQVTVSS | low polyreactivity |
| QVQLVESGGGLVQAGGSLRLSCAASGRTFAKYAMGWYRQAPGKERELVAAITRGDTTNYADSVKGRFTISRDNAKNTVYLQMNSLKPEDTGVYYCAATPDPPHTYEYWGQGTQVTVSS | low polyreactivity |
| QVQLVESGGGLVQAGGSLRLSCAASGRTFALYAMGWYRQAPGTERELVASISWRGGSTYYADSVKGRFTISRDNAKNTVYLQMNSLKPEDTAVYYCAADTWSYGPLNYRLEYWGQGTQVTVSS | low polyreactivity |

| Sequence | polyreactivity (PSR sort gate) |
| --- | --- |
| QVQLVESGGGLVQAGGSLRLSCAASGRTFANNAMGWYRQAPGKERELVAAITASGGRTYYADSVKGRFTISRDNAKNTVYLQLNSLKPEDTAVYYCAKRGYASGSKWDYGYWGQGTQVTVSS | high polyreactivity |
| QVQLVESGGGLVQAGGSLRLSCAASGRTFANYAMGWYRQAPGKERELVAAISYSGGSTYYADSVKGRFTISRDNAKNTVYLQMNSLKPVDTAVYYCAKRWTGLGGYYYWGQGTQVTVSS | high polyreactivity |
| QVQLVESGGGLVQAGGSLRLSCAASGRTFAPYAMGWYRQAPGKERELVAGITYRTGNTYYADSVKGRFTISRDNAKNTVYLQMNSLKPEDTAVYYCAAYSGYYRPRYNYWGQGTQVTVSS | high polyreactivity |
| QVQLVESGGGLVQAGGSLRLSCAASGRTFAPYTMGWYRQAPGKERELVAVITRRDGRTYYADSVKGRFTISRDNAKNTVYLQMNSLKPEDTAVYYCCFFPADWYRPVRDLRTDSDYWGQGTQVTVSS | low polyreactivity |
| QVQLVESGGGLVQAGGSLRLSCAASGRTFAPYVMGWYRQAPGKERELVAAITWSGGSTYYADSVKGRFTISRDNAKNTVYLQMNSLKPEDTALYYCAVKGAGGPKYDYWGQGTQVTVSS | high polyreactivity |
| QVQLVESGGGLVQAGGSLRLSCAASGRTFAQYAMGWYRQAPGKERELVAAITKRGGTTYYADSVKGRFTISRDNAKNTVYLQMNSLKPEDTAVYYCKAGGVVPSTYYWGQGTQVTVSS | high polyreactivity |
| QVQLVESGGGLVQAGGSLRLSCAASGRTFARNAMGWYRPAPGKERELVAAITGRGGSTHYADSVKGRFTISRDNAKNTVYLKMNSLKPEDTAVYYCAADYRYNRGSTSNKDYDYWGQGTQVTVSS | low polyreactivity |
| QVQLVESGGGLVQAGGSLRLSCAASGRTFARNAMGWYRQAPGKERELGAAISSSGGSTYYADSVKGRFTISRDNAKNTVYLQMNSLKPEDTAVYYCDARSRHAYGYWGQGTQVTVSS | high polyreactivity |
| QVQLVESGGGLVQAGGSLRLSCAASGRTFARNAMGWYRQAPGKERELVAAITSIGTRTYYADSVKARFTISRDNAMNTVYLQMNSLKREDTAVYYCNKKRTADYDYWGQGTQVTVSS | low polyreactivity |
| QVQLVESGGGLVQAGGSLRLSCAASGRTFARYAMGWYRPAPGKERELVAAISSSGGSTYYADSVKWRFTISRDNAKNTVYLQMNSLKPEDTAVYYCVTYRNWWYDFWGQGTQVTGSS | high polyreactivity |
| QVQLVESGGGLVQAGGSLRLSCAASGRTFARYVMGWYRQAPGKERELVAAINSGGTTYYADSVKGRFTISRDNAKNTVYLQMNSLKPEDTAVYYCNARRGHYAYDYWGQGTQVTLSS | high polyreactivity |
| QVQLVESGGGLVQAGGSLRLSCAASGRTFASNAMGWYRQAPGKERELVAAITISGGRTYYADSVKGRFTISRDNAKNTVYLQMNSLKPEDTAVYYCAAAKHSWRPSYYWGGYWGQGTQVTVSS | low polyreactivity |
| QVQLVESGGGLVQAGGSLRLSCAASGRTFASYARGWYRQAPGKERELVAVITRGVRTYYADSVKGRFTISRDNAKNTVYLQMNSLKPEDTAVYYCAKERYNANYDTSLYDYWGQGTQVTVSS | low polyreactivity |
| QVQLVESGGGLVQAGGSLRLSCAASGRTFATNTMGWSRQAPGKERELVAAITFSGGSTYYADSVKGRFTISRDNAKNTVYLQMNSLKPEDTAVYYCNVRSPYYSYRYRYGYWGQGTQVTVSS | high polyreactivity |
| QVQLVESGGGLVQAGGSLRLSCAASGRTFATNTMGWYRQAPGKERELVAAITFSGGSTYYADSVKGRFTISRDNAKNTVYLQMNSLKREDTAVYYCNVRSPYYSYRYRYGYWGHGTQVTVSS | high polyreactivity |
| QVQLVESGGGLVQAGGSLRLSCAASGRTFATYAMGWYRQEPGKERELVAAISTSGGSTYYADSVKGRFTISRDNAKNTVYLQMNSLKPEDTAVYYCAAVLSWRGYTCPVYAFDYWGQGTQVTVSS | high polyreactivity |
| QVQLVESGGGLVQAGGSLRLSCAASGRTFATYMGWYRQAPGKERELVAGITRGGNTNYADSVKGRFTISRDNAKNTVYLQMNSLKPEDTAVYYCAKLKYRSHYSWGQGTQVTVSS | high polyreactivity |
| QVQLVESGGGLVQAGGSLRLSCAASGRTFAVYAMGWYRQAPGKERELVAAITFGGGRTYYADSVKGRFTISRDNAKITVYLQMNSLKPEDTAVYYCAADYYGTDYDYRGQGTQVTVSS | low polyreactivity |
| QVQLVESGGGLVQAGGSLRLSCAASGRTFAWYAMAWYRQAPGKERELVATITSRGGSTYYADSVKGRFTISRDNAKNTVYLQMNSLKPEYTAVYYCAAQSFWRPHQYDYWGQGTQVTVSS | low polyreactivity |
| QVQLVESGGGLVQAGGSLRLSCAASGRTFAWYAMGWYRQAPGKERELVAAISNVGSTYYADSVKGRFTISRDNAKNTVYLQMNSLKPEDTAVYYCNADAVSTDGREYWGQGTQVTVSS | low polyreactivity |
| QVQLVESGGGLVQAGGSLRLSCAASGRTFAYNAMGWYRQAPGKERELVAAISRSGGSTYYADSVKGRFTISRDNAKNTVYLQMNSLKPEDTAVYYCNKVTHSYLYFAAGDYWGLGTQVTVSS | high polyreactivity |
